Measured values: patent US20230250170A1

Tests used:
[1] = molecular target: monkey NPR1 extracellular domain expressed with a C-terminal myc-myc-hexahistidine (monkey); assay: SPR Biacore 4000, mAb captured via anti-hFc, 37 C, binding pH 7.4, dissociation pH 7.4
[2] = molecular target: human NPR1 extracellular domain expressed with a C-terminal myc-myc-hexahistidine (human) (UniProt P16066); assay: as above
[3] = molecular target: human NPR1 on HEK293/hNPR1 cells (human) (UniProt P16066); assay: cell-based or functional assay
Sequence of human NPR1 on HEK293/hNPR1 cells (human) (P16066 33-1061): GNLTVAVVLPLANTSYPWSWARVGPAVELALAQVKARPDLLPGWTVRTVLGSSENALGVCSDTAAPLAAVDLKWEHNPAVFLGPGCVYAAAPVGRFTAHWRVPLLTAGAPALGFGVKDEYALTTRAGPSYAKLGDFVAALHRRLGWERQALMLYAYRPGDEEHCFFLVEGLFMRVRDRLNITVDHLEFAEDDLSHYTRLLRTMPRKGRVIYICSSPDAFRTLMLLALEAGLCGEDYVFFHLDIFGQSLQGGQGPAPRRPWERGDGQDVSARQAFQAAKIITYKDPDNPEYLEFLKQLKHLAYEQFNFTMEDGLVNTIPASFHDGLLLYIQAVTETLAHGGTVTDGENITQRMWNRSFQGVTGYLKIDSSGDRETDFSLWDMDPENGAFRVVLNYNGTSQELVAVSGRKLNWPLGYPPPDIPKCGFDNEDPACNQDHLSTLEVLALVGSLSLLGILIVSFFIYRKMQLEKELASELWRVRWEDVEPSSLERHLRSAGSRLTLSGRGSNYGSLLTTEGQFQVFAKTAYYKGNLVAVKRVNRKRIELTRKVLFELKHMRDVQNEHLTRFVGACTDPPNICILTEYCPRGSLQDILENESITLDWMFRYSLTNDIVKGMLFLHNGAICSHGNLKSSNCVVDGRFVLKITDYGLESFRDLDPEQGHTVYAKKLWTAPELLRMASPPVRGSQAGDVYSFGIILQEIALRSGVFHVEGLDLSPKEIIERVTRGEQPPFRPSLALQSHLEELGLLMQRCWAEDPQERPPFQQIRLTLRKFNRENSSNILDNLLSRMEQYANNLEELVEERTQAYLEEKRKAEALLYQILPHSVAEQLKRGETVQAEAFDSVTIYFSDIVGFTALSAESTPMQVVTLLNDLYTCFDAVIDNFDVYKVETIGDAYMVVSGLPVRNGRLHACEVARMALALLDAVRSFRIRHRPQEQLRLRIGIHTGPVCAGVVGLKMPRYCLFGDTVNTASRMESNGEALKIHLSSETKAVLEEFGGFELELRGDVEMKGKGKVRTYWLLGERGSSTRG

[4] = molecular target: monkey NPR1 extracellular domain expressed with a C-terminal myc-myc-hexahistidine (monkey); assay: SPR Biacore 8K, mAb captured via anti-hFc, 37 C
[5] = molecular target: pig NPR1 extracellular domain expressed with a C-terminal myc-myc-hexahistidine (pig); assay: SPR Biacore 8K, mAb captured via anti-hFc, 37 C
Sequence of pig NPR1 extracellular domain expressed with a C-terminal myc-myc-hexahistidine (pig) (chain, as listed by the source limits assumed): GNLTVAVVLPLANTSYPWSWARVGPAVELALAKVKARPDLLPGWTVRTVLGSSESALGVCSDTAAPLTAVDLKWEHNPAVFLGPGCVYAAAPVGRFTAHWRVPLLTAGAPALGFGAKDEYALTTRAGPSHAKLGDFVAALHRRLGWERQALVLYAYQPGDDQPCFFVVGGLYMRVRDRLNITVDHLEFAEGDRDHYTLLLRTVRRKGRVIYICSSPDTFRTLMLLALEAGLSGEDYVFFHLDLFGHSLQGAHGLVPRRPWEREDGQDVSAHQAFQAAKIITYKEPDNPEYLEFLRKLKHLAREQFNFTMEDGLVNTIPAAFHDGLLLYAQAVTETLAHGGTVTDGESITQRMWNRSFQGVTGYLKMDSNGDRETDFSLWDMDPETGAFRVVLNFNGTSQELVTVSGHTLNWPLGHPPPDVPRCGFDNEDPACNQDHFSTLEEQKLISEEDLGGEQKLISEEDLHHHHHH

[6] = molecular target: human NPR1 extracellular domain expressed with a C-terminal myc-myc-hexahistidine (human) (UniProt P16066); assay: SPR Biacore 8K, mAb captured via anti-hFc, 37 C
[7] = molecular target: dog NPR1 extracellular domain expressed with a C-terminal myc-myc-hexahistidine (dog); assay: SPR Biacore 8K, mAb captured via anti-hFc, 37 C
Sequence of dog NPR1 extracellular domain expressed with a C-terminal myc-myc-hexahistidine (dog) (chain, as listed by the source limits assumed): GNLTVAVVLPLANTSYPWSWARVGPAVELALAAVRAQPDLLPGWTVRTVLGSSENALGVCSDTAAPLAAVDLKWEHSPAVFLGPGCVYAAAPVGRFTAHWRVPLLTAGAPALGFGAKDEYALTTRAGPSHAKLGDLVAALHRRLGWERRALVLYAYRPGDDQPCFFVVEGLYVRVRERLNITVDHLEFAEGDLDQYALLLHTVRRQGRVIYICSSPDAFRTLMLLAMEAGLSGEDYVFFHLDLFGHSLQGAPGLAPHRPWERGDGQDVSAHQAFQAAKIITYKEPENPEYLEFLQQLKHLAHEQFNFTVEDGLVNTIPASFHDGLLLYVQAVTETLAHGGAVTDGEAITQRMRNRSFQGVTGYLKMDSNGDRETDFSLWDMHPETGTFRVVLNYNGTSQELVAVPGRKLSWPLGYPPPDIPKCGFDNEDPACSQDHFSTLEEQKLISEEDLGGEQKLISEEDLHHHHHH

[8] = molecular target: mouse NPR1 extracellular domain expressed with a C-terminal myc-myc-hexahistidine (mouse) (UniProt P18293); assay: SPR Biacore 8K, mAb captured via anti-hFc, 37 C
Sequence of mouse NPR1 extracellular domain expressed with a C-terminal myc-myc-hexahistidine (mouse) (P18293 other isoform, or with tags, fused parts or gaps): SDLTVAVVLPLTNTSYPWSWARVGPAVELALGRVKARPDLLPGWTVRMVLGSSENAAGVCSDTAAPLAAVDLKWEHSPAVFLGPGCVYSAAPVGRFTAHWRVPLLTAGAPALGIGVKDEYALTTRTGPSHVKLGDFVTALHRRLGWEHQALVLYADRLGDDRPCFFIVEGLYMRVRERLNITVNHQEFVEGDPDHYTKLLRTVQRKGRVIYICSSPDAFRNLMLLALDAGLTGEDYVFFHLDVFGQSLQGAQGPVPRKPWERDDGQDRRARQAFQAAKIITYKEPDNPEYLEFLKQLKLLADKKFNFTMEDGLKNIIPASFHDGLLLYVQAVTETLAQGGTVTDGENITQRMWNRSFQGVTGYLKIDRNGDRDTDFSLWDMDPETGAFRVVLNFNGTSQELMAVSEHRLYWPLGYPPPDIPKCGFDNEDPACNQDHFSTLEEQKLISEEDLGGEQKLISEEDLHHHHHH

[9] = molecular target: monkey NPR1 extracellular domain expressed with a C-terminal myc-myc-hexahistidine (monkey); assay: SPR Biacore 4000, mAb captured via anti-hFc, 37 C, binding pH 7.4, dissociation pH 6.0
[10] = molecular target: human NPR1 extracellular domain expressed with a C-terminal myc-myc-hexahistidine (human) (UniProt P16066); assay: as above
[11] = molecular target: hNPR1-MMH in the presence of hANP (receptor-ligand complex) (human) (UniProt P01160); assay: SPR Biacore 8K, mAb captured via anti-hFc, 37 C, 10-fold hANP present
Sequence of hNPR1-MMH in the presence of hANP (receptor-ligand complex) (human) (chain, as listed by the source limits assumed, chain 1 of 2): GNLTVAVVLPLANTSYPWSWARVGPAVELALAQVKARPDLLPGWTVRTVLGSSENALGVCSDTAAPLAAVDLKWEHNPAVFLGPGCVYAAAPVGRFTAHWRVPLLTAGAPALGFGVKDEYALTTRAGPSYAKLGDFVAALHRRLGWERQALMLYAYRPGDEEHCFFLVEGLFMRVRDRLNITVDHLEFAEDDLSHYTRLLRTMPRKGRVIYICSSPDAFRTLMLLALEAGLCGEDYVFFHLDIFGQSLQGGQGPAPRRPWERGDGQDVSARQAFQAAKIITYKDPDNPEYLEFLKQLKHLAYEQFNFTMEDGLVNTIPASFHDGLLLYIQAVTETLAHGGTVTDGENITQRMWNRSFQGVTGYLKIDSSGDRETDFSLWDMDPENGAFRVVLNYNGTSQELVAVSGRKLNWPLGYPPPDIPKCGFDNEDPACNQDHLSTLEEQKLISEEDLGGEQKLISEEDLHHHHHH
Sequence of hNPR1-MMH in the presence of hANP (receptor-ligand complex) (human) (P01160 124-151 limits assumed, chain 2 of 2): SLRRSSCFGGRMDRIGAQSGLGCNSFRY

[12] = molecular target: monkey NPR1 extracellular domain expressed with a C-terminal myc-myc-hexahistidine (monkey); assay: SPR Biacore 8K, mAb captured via anti-hFc, 25 C
[13] = molecular target: pig NPR1 extracellular domain expressed with a C-terminal myc-myc-hexahistidine (pig); assay: SPR Biacore 8K, mAb captured via anti-hFc, 25 C
[14] = molecular target: human NPR1 extracellular domain expressed with a C-terminal myc-myc-hexahistidine (human) (UniProt P16066); assay: SPR Biacore 8K, mAb captured via anti-hFc, 25 C
[15] = molecular target: dog NPR1 extracellular domain expressed with a C-terminal myc-myc-hexahistidine (dog); assay: SPR Biacore 8K, mAb captured via anti-hFc, 25 C
[16] = molecular target: mouse NPR1 extracellular domain expressed with a C-terminal myc-myc-hexahistidine (mouse) (UniProt P18293); assay: SPR Biacore 8K, mAb captured via anti-hFc, 25 C
[17] = molecular target: hNPR1-MMH in the presence of hANP (receptor-ligand complex) (human) (UniProt P01160); assay: SPR Biacore 8K, mAb captured via anti-hFc, 25 C, 10-fold hANP present

Sequence of human NPR1 extracellular domain expressed with a C-terminal myc-myc-hexahistidine (human) (P16066 other isoform, or with tags, fused parts or gaps): as the sequence (chain, as listed by the source limits assumed, chain 1 of 2) above
Sequence of monkey NPR1 extracellular domain expressed with a C-terminal myc-myc-hexahistidine (monkey) (P16066 other isoform, or with tags, fused parts or gaps): as the sequence (chain, as listed by the source limits assumed, chain 1 of 2) above, with Q33R, V80A, D284E, Y302R, N385T counted along it

Isotype control (antibody)
30 nM Ag Bound (RU) [1]: 1 RU | 30 nM Ag Bound (RU) [2]: 2 RU | Max Kill, %, secondary ADC mediated cytotoxicity, no ligand [3]: 0.01% | Max Kill, %, secondary ADC mediated cytotoxicity, with 100 nM ANP [3]: -4% | Max Kill, %, secondary ADC mediated cytotoxicity, with 100 nM BNP [3]: 0.5% | Max inh., %, cGMP accumulation assay, with 0.2 nM ANP [3]: -1% | Max inh., %, cGMP accumulation assay, with 0.7 nM BNP [3]: -9% | 40 nM Ag Bound (RU) [4]: 0 RU | 40 nM Ag Bound (RU) [5]: 0 RU | 40 nM Ag Bound (RU) [6]: 0 RU | 40 nM Ag Bound (RU) [7]: 0 RU | 40 nM Ag Bound (RU) [8]: 0 RU | 30 nM Ag Bound (RU) [9]: 2 RU | 30 nM Ag Bound (RU) [10]: 2 RU | 40 nM Ag Bound (RU) [11]: 0 RU | 40 nM Ag Bound (RU) [12]: 1 RU | 40 nM Ag Bound (RU) [13]: 0 RU | 40 nM Ag Bound (RU) [14]: 0 RU | 40 nM Ag Bound (RU) [15]: 0 RU | 40 nM Ag Bound (RU) [16]: 0 RU | 40 nM Ag Bound (RU) [17]: 0 RU
